Measured values reported in US20240376183A1 (UNIVERSIT T ZU K LN, published 2024).
Where a chain is given by its changes, count along the chain named.

B1: antibody 1-18 (antibody, V domains shown)
VH: QGRLFQSGAEVKRPGASVRISCRADDDPYTDDDTFTKYWTHWIRQAPGQRPEWLGVISPHFARPIYSYKFRDRLTLTRDSSLTAVYLELKGLQPDDSGIYFCARDPFGDRAPHYNYHMDVWGGGTAVIVSS
VL: EVVLTQSPAILSVSPGDRVILSCRASQGLDSSHLAWYRFKRGQIPTLVIFGTSNRARGTPDRFSGSGSGADFTLTISRVEPEDFATYYCQRYGGTPITFGGGTTLDKK
B2: antibody 1-55 (antibody, V domains shown)
VH: QRRLFQSGTEVKRPGASVKISCRADDDPYTDDDTFTKYYTHWIRQAPGQPPEWLGVISPHFARPIYSYKFRDRLTLTRDSSLTAVYFELRGLQPDDTGIYFCARDPFGDMYPHYNYHMDVWGGGTTVIVSA
VL: B1 VL with V2A, R24K, Q27E, D30S, H33D, R41G, T52A, A70T, S77N
B3: antibody 2-12 (antibody, V domains shown)
VH: QLVQSGGGVRRPGASVKISCETPEDTFTKYWLHWLRQAPGQGLEWMGVVSPHGGRPMFAFEFRDRLTLTRDIHTTTHFMELRGLTSDDTAVYYCARDPFGETFRGHDQPYRMDVWGGGTTIVVSS
VL: EPVLTQSPGTLSVSPGEGATLSCRARQGFSADHVAWFQKKPGRPPRLLIFEASRRASGTPERFSGSGSGPEYTLTITRVEAEDFAVYYCQSYGSITPLVFGGGTRVDVK

The binders below were run against HIV-1 Env protein of virus strain 89-F1_2_25 (HIV-1) (assay: cell-based or functional assay).

| Binder | IC50, TZM-bl pseudovirus neutralization assay |
| --- | --- |
| B1 | 7 ng/mL |
| B2 | 14 ng/mL |
| B3 | 6 ng/mL |
